Assay results: FireProtDB (doi:10.1016/j.bbadis.2004.06.012)

B1: Aryl-hydrocarbon-interacting protein-like 1, Q9NZN9 (parent)
chain: MDAALLLNVEGVKKTILHGGTGELPNFITGSRVIFHFRTMKCDEERTVIDDSRQVGQPMHIIIGNMFKLEVWEILLTSMRVHEVAEFWCDTIHTGVYPILSRSLRQMAQGKDPTEWHVHTCGLANMFAYHTLGYEDLDELQKEPQPLVFVIELLQVDAPSDYQRETWNLSNHEKMKAVPVLHGEGNRLFKLGRYEEASSKYQEAIICLRNLQTKEKPWEVQWLKLEKMINTLILNYCQCLLKKEEYYEVLEHTSDILRHHPGIVKAYYVRARAHAEVWNEAEAKADLQKVLELEPSMQKAVRRELRLLENRMAEKQEEERLRCRNMLSQGATQPPAEPPTEPPAQSSTEPPAEPPTAPSAELSAGPPAEPATEPPPSPGHSLQH

Variants of: B1
Details: Homo sapiens; pH 7.9; Thermal; CD; sodium Phosphate 5 mM; transition: 2; whole UniProt chain shown

Variant	Tm	change of melting temperature, mutant - wild type (higher = more stable)
MDAALLLNVEGVKKTILHGGTGELPNFITGSRVIFHFRTMKCDEERTVIDDSRQVGQPMHIIIGNMFKLEVWEILLTSMRVHEVAEFWCDTIHTGVYPILSRSLRQMAQGKDPTEWHVHTCGLANMFAYHTLGYEDLDELQKEPQPLVFVIELLQVDAPSDYQRETWNLSNHEKMKAVPVLHGEGNRLFKLGRYEEASSKYQEAIICLRNLQTKEKPWEVQWLKLEKMINTLILNYCQCLLKKEEYYEVLEHTSDILRHHPGIVKAYYVRARAHAEVWNEAEAKADLQKVLELEPSMQKAVLRELRLLENRMAEKQEEERLRCRNMLSQGATQPPAEPPTEPPAQSSTEPPAEPPTAPSAELSAGPPAEPATEPPPSPGHSLQH [R302L]	43.2 °C	-0.9 °C
MDAALLLNVEGVKKTILHGGTGELPNFITGSRVIFHFRTMKCDEERTVIDDSRQVGQPMHIIIGNMFKLEVWEILLTSMRVHEVAEFWCDTIHTGVYPILSRSLRQMAQGKDPTEWHVHTCGLANMFAYHTLGYEDLDELQKEPQPLVFVIELLQVDAPSDYQRETWNLSNHEKMKAVPVLHGEGNRLFKLGRYEEASSKYQEAIICLRNLQTKEKPWEVQWLKLEKMINTLILNYCQCLLKKEEYYEVLEHTSDILRHHPSIVKAYYVRARAHAEVWNEAEAKADLQKVLELEPSMQKAVRRELRLLENRMAEKQEEERLRCRNMLSQGATQPPAEPPTEPPAQSSTEPPAEPPTAPSAELSAGPPAEPATEPPPSPGHSLQH [G262S]	40.1 °C	-4 °C
MDAALLLNVEGVKKTILHGGTGELPNFITGSRVIFHFRTMKCDEERTVIDDSRQVGQPMHIIIGNMFKLEVWEILLTSMRVHEVAEFWCDTIHTGVYPILSRSLRQMAQGKDPIEWHVHTCGLANMFAYHTLGYEDLDELQKEPQPLVFVIELLQVDAPSDYQRETWNLSNHEKMKAVPVLHGEGNRLFKLGRYEEASSKYQEAIICLRNLQTKEKPWEVQWLKLEKMINTLILNYCQCLLKKEEYYEVLEHTSDILRHHPGIVKAYYVRARAHAEVWNEAEAKADLQKVLELEPSMQKAVRRELRLLENRMAEKQEEERLRCRNMLSQGATQPPAEPPTEPPAQSSTEPPAEPPTAPSAELSAGPPAEPATEPPPSPGHSLQH [T114I]	34.8 °C	-9.3 °C
MDAALLLNVEGVKKTILHGGTGELPNFITGSRVIFHFRTMKCDEERTVIDDSRQVGQPMHIIIGNMFKLEVWEILLTSMRVHEVAEFWCDTIHTGVYPILSRSLRQMAQGKDPTEWHVHTCGLANMFAYHTLGYEDLDELQKEPQPLVFVIELLQVDAPSDYQRETWNLSNHEKMKAVPVLHGEGNRLFKLGRYEEASSKYQEAINCLRNLQTKEKPWEVQWLKLEKMINTLILNYCQCLLKKEEYYEVLEHTSDILRHHPGIVKAYYVRARAHAEVWNEAEAKADLQKVLELEPSMQKAVRRELRLLENRMAEKQEEERLRCRNMLSQGATQPPAEPPTEPPAQSSTEPPAEPPTAPSAELSAGPPAEPATEPPPSPGHSLQH [I206N]	41.4 °C	-2.7 °C
MDAALLLNVEGVKKTILHGGTGELPNFITGSRVIFHFRTMKCDEERTVIDDSRQVGQPMHIIIGNMFKLEVWEILLTSMRVHEVAEFWCDTIHTGVYPILSRSLRQMAQGKDPTEWHVHTCGLANMFAYHTLGYEDLDELQKEPQPLVFVIELLQVDAPSDYQRETWNLSNHEKMKAVPVLHGEGNRLFKLGRYEEASSKYQEAIICLRNLQTKEKPWEVQWLKLEKMINTLILNYCQRLLKKEEYYEVLEHTSDILRHHPGIVKAYYVRARAHAEVWNEAEAKADLQKVLELEPSMQKAVRRELRLLENRMAEKQEEERLRCRNMLSQGATQPPAEPPTEPPAQSSTEPPAEPPTAPSAELSAGPPAEPATEPPPSPGHSLQH [C239R]	46.7 °C	2.6 °C
MDAALLLNVEGVKKTILHGGTGELPNFITGSRVIFHFRTMKCDEERTVIDDSRQVGQPMHIIIGNMFKLEVWEILLTSMRVHEVAEFWCDTIHTGVYPILSRSLRQMAQGKDPTEWHVHTCGLANMFAYHTLGYEDLDELQKEPQPLVFVIELLQVDAPSDYQRETWNLSNHEKMKAVPVLHGEGNRLFKLGRYEEASSKYQEAIICLRNLQTKEKPWEVQWLKLEKMINTLILNYCQCLLKKEEYYEVLEHTSDILRHHPGIVKAYYVRARAHAEVXNEAEAKADLQKVLELEPSMQKAVRRELRLLENRMAEKQEEERLRCRNMLSQGATQPPAEPPTEPPAQSSTEPPAEPPTAPSAELSAGPPAEPATEPPPSPGHSLQH [W278X]	33.2 °C	-10.9 °C
MDAALLLNVEGVKKTILHGGTGELPNFITGSRVIFHFRTMKCDEERTVIDDSRQVGQPMHIIIGNMFKLEVWEILLTSMRVHEVAEFWCDTIHTGVYPILSRSLRQMAQGKDPTEWHVHTCGLANMFAYHTLGYEDLDELQKEPQPLVFVIELLQVDAPSDYQRETWNLSNHEKMKAVPVLHGEGNRLFKLGRYEEPSSKYQEAIICLRNLQTKEKPWEVQWLKLEKMINTLILNYCQCLLKKEEYYEVLEHTSDILRHHPGIVKAYYVRARAHAEVWNEAEAKADLQKVLELEPSMQKAVRRELRLLENRMAEKQEEERLRCRNMLSQGATQPPAEPPTEPPAQSSTEPPAEPPTAPSAELSAGPPAEPATEPPPSPGHSLQH [A197P]	40.5 °C	-3.6 °C
